Among the data in publication PMC9426574 are SPR response, Kd and percent of parent (% of Wildtype) values, retold here.

Assay [1] deals with His-tagged TdfJ K261P/R262P (purified) (Neisseria gonorrhoeae). In words: SPR; His-tagged TdfJ (89 μg/mL) immobilised on Ni-NTA sensor chip, free NTA blocked with His-tagged streptavidin; S100A7 injected at 1, 10, 50, 100, 500 nM, 20 μL/min; PBS pH 8.0; OpenSPR XT; steady-state, single-site fit (EC50 analysis setting).
For assay [2], the target named is His-tagged wild-type TdfJ (purified) (Neisseria gonorrhoeae). The assay is described as above.
A further assay has as its target HRP-labeled human S100A7 (UniProt P31151). In words: ELISA. The conditions noted are these: His-tagged TdfJ on NTA-coated 96-well plate; absorbance at 450 nm; parent: est. 100; read off a plot.
The target of assay [3] is transferrin (Homo sapiens) (UniProt P02787). The conditions noted are these: cited from earlier work.
Chain of UniProt P02787 (P02787 20-698): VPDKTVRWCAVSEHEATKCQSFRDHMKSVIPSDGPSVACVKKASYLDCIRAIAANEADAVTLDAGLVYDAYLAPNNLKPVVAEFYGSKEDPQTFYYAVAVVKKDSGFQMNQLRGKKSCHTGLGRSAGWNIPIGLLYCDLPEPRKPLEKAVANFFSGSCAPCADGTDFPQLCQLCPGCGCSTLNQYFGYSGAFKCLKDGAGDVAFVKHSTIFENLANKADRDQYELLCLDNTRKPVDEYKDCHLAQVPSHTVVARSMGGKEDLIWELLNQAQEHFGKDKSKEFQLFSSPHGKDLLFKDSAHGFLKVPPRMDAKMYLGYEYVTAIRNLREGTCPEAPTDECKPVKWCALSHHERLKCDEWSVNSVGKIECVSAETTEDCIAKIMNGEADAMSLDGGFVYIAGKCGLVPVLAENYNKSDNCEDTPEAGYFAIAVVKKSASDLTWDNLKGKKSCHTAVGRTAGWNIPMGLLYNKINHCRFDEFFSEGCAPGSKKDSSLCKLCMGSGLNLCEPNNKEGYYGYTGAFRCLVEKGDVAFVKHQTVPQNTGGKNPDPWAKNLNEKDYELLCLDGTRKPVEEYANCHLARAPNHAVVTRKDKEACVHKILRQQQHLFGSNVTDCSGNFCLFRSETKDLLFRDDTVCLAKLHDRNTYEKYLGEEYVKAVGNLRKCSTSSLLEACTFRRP

“Human S100A7 (from UniProt P31151 1-101) (natural protein)” gave an SPR response at equilibrium at 500 nM S100A7 in assay [1] of 325 RU. In assay [2], this substance registered an equilibrium dissociation constant (Kd) of 41 nM, an SPR response at 1 nM S100A7 of 220 RU and an SPR response at 500 nM S100A7 of 900 RU. As to “His-tagged wild-type TdfJ (purified) Q265P; L266P”, the percent of parent (% of Wildtype) with HRP-labeled human S100A7 is 20. Same read-out and setting: the figure for “His-tagged wild-type TdfJ (purified) K261P; R262P” is 3; for “His-tagged wild-type TdfJ (purified) K256E” it is 87; for “His-tagged wild-type TdfJ (purified) L266P” it is 74. The same measure, in the same setting: under “His-tagged wild-type TdfJ (purified) R262P” stands 79. For TbpA (from UniProt Q01996), the Kd in assay [3] was 10 nM.

Regarding “His-tagged wild-type TdfJ (purified) Q265P”, the percent of parent (% of Wildtype) in the assay with HRP-labeled human S100A7 is 80.
